# Measurements taken from publication PMC6252174 (Nature structural & molecular biology, 2018).
# B1: Xenopus tropicalis TRPV4 crystallization and cryo-EM construct TRPV4_(cryst) (133–797 N647Q) (domain or fragment, UniProt A0A6I8RQZ3 133-797, looked up)
# chain: APSPDPPPVIKMFNRHMLFDIVSRGSTAELEGFLPFLLAQKKRLTDEEFREASTGKTCLTKALMNLNGGKNDTIPMLIDIAEKTGNLREFINSPFRDVYYRGQTALHIAIERRCKHYVELLVEKGADVHAQARGRFFQPKDEGGYFYFGELPLSLAACTNQPDIVHYLTENAHKKADIRRQDSRGNTVLHALVAIADNTRENTKFVTKVYDLLVIKCVKLYPDSSLEAIFNNDSMSPLMMAAKLGKIGIFQHIIRLEIKDEEARHLSRKFRDWAYGPVYSSLYDLSMLDTCGEEVSVLEILVYNSKVENRHEMLAVEPINELLRDKWQKFGAVSFYISVVSYLIAMIIFTLIAYYRPMDGTPPYPYRTTMDYMRLAGEIVTLLTGVVFFITNIKDLFMKKCPGVNSLFIDGSFQLLYFIYSVLVIITAVLYLVGIESYLAVMVFALVLGWMNALYFTRGLKLTGTYSIMLQKILFKDLFRFLLVYLLFMIGYASALVSLLNPCTSQESCIETSSQCTVPEYPSCRDSSTFSKFLLDLFKLTIGMGDLEMINSAKYPAVFIILLVTYIILTFVLLLNMLIALMGETVGQVSKESKQIWKLQWATTILDIERSFPVCMRKAFRSGEMVTVGKNLDGTPDRRWCFRVDEVNWSHWNQNLGIINEDPGR
# Molecular target: the molecule itself
# Experiment: cryo-EM structure
protein,measurement,value
B1,stoichiometry N,4
